Holding throughout (assay): EMSA
Background: In EMSA bound probe runs differently from free probe, usually more slowly.

For data set [1], the target named is T1, LbCas12a (Lachnospiraceae bacterium ND2006, UniProt A0A5S8WF58 1-1228).
For data set [2], the target named is T1, LbCas12a. This is another data set of the same source.
In data set [3] the target is T1, LbCas12a. The source holds these as a separate data set.
Data set [4] concerns the target T1, LbCas12a. The source holds these as a separate data set.

Where two headings read alike, the source gives them in different places.

As a reminder, the Kd is the equilibrium constant for the complex coming apart. Low readings indicate tighter binding, high ones weaker binding. Regarding AAUUUCUACUAAGUGUAGAUAAAGUGCUCAUCAUUGGAAAACGU (structured_RNA) [LbCas12a crRNA (24-nt T1) rGJK_007], the Kd is 38.9 ± 4.7 nM in the data set with LbCas12a [1], 35.8 ± 4.4 nM with LbCas12a [2], 17.6 ± 2.4 nM with LbCas12a [3] and 16.4 ± 2.1 nM with LbCas12a [4].

Source of the values: article PMC6449189.
